These results are taken from patent US20120316071A1 (published 2012).

Positions count from the first letter of the chain named. Names may count otherwise.

Assay [1] addresses T1, rHuman ErbB2/Fc Chimera, CF (human, UniProt P04626 23-652).
T1 construct: Bought from R&D Systems; also called human epidermal growth factor 2 receptor; not shown: Fc of the bought chimera
Description: ECL Multispot (MSD) assay; antigen spotted on plate, Fab in solution.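 Also: fab bound 1 h at 20 °C, detected by TAG-labelled antibody electrochemiluminescence, signal relative to each well's blank, ratio of 4 or more marks a hit.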

Assay [2] deals with T2, rHuman EGF R/Fc Chimera, CF (human, UniProt P00533 25-645).
T2 construct: Bought from R&D Systems; also called epidermal growth factor receptor; not shown: Fc of the bought chimera
Described as above.

Assay [3] has as its target T3, rHuman HGF R/c-MET/Fc Chimera, CF (human, UniProt P08581 25-932).
T3 construct: Bought from R&D Systems; also called HGF R/Fc; hepatocyte growth factor receptor; not shown: Fc of the bought chimera
The assay is described as above.

The target in assay [4] is T4, rHuman Notch-1/Fc Chimera, CF (human, UniProt P46531 19-526).
T4 construct: Bought from R&D Systems; not shown: Fc of the bought chimera
Described as above.

The target of assay [5] is T5, rHuman CD44/Fc Chimera, CF (human, UniProt P16070 21-220).
T5 construct: Bought from R&D Systems; not shown: Fc of the bought chimera
The assay is described as above.

The target in assay [6] is T6, rHuman IGF-1 sR, (IGF-1 sR), CF (human, UniProt P08069 31-932).
T6 construct: Bought from R&D Systems; also called insulin-like growth factor-1 soluble receptor
The description is as above.

Assay [7] has as its target T7, rHuman Erythropoietin R/Fc Chimera, CF (human, UniProt P19235 25-250).
T7 construct: Bought from R&D Systems; also called EPO R; EPO R/Fc; not shown: Fc of the bought chimera
T7 sequence (looked up): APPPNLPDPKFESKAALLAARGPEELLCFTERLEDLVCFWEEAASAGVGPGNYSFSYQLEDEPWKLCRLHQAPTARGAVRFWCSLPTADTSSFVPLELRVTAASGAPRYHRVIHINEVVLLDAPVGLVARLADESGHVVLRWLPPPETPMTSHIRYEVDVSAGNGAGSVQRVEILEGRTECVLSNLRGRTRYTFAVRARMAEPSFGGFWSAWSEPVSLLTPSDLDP
The description is as above.

In assay [8] the target is T8, Recombinant Human DLL4 (human, UniProt Q9NR61 27-524).
T8 construct: Bought from R&D Systems; also called delta-like protein 4; rHuman DLL4
Described as above.

In assay [9] the target is T9, Recombinant Human DLL4 (delta-like protein 4) (human, UniProt Q9NR61 27-529).
T9 construct: Bought recombinant human DLL4 (R&D Systems Cat#1506-D4/CF); also called rHuman DLL4; Delta-like 4
The experiment in a line: 96-well plate ECL binding assay, DLL4 immobilised, Fab in solution.

In assay [10] the target is T9, Recombinant Human DLL4 (delta-like …). Description: ELISA, DLL4 coated on plate, Fab in solution, absorbance at 450 nm. Background: In an ELISA, binding on a coated surface is turned into a signal by an enzyme label.
Assay [11] concerns the target T10, Recombinant Human DLL4 (human, UniProt Q9NR61 27-524).
T10 construct: Bought recombinant human DLL4 (R&D Systems 1506-D4/CF); also called delta-like protein 4; rHuman DLL4
Description: ELISA on plate-coated DLL4, Fab at 20 nM (3-fold serial dilution).

Assay [12] addresses T10, Recombinant Human DLL4. Description: ELISA on plate-coated DLL4, Fab at 0.74 nM (3-fold serial dilution).
The target in assay [13] is T10, Recombinant Human DLL4. The experiment in a line: ELISA on plate-coated DLL4, Fab at 2.22 nM (3-fold serial dilution).
In assay [14] the target is T10, Recombinant Human DLL4. The experiment in a line: ELISA on plate-coated DLL4, Fab at 6.67 nM (3-fold serial dilution).
The target of assay [15] is T10, Recombinant Human DLL4. Description: ECL (MSD) binding assay, Fab on immobilised recombinant human DLL4; Fab concentration not given in the table.

T3 sequence (P08581 25-932, change not shown): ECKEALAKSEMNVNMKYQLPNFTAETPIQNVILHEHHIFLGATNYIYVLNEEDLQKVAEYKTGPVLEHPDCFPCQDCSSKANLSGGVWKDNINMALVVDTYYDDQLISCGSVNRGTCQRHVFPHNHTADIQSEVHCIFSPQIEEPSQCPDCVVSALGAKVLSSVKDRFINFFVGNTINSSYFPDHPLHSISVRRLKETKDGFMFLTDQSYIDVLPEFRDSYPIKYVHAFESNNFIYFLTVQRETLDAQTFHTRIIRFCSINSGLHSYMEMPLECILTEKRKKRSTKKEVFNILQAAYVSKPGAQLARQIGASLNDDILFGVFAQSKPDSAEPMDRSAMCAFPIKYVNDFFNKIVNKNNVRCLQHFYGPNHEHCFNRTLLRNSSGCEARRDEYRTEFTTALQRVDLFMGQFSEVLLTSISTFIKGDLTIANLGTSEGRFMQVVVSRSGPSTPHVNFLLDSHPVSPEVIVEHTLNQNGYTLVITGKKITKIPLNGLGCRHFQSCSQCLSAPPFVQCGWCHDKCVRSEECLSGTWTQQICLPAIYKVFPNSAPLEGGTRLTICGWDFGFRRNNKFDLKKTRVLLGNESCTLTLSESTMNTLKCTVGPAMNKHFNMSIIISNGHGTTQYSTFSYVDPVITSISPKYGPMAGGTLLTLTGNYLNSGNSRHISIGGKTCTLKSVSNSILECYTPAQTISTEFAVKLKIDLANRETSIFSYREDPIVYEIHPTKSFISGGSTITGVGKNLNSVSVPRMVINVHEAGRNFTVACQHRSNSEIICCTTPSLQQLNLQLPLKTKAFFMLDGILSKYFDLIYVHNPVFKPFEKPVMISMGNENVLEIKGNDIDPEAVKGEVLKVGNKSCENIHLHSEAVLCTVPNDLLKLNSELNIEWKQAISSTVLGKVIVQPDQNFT

B1: Fab VH1-46_IGHD6-6*01_IGHJ1*01 S102A/S103P/S104F/H111F (APFF) & L6_IGKJ1*01 S28Q (Fab, V domains shown)
VH: QVQLVQSGAEVKKPGASVKVSCKASGYTFTSYYMHWVRQAPGQGLEWMGIINPSGGSTSYAQKFQGRVTMTRDTSTSTVYMELSSLRSEDTAVYYCAREEYAPFSAEYFQFWGQGTLVTVSS
VL: EIVLTQSPATLSLSPGERATLSCRASQQVSSYLAWYQQKPGQAPRLLIYDASNRATGIPARFSGSGSGTDFTLTISSLEPEDFAVYYCQQRSNWPPWTFGQGTKVEIKR
notes: Fab made in E. coli; the variable domains were cloned into Plasmid A (CH1, His and Flag tags) and Plasmid C (kappa CL); also called APFF / S28Q
For the molecule B1, the ECL signal in assay [1] was 345; in [2], 517; in [3] it was 380; in assay [4] it was 331; in assay [5], 420; in [6], 404. Further, the ECL signal in [7] was found to be 437; with Recombinant Human DLL4 [8], 133000.

B2: Fab VH1-46_IGHD6-6*01_IGHJ1*01 S102A/S103P/S104F/H111F & L6_IGKJ1*01 S28N/S30D/S31H (Fab, V domains shown)
VH: B1 VH
VL: B1 VL with Q28N, S30D, S31H
notes: Parental template of this NNK series; Fab with CH1 (plasmid A, His6 and Flag tags) and kappa CL (plasmid C); also called H:APFF & L:NDH; NDH
For the molecule B2, the “ECL signal” value in assay [9] was 18700. Also, the “ELISA (Avgerage signal-noise)” value in [10] stood at 0.165.

B3: Fab VH1-46_IGHD6-6*01_IGHJ1*01 S102A/S103P/S104F/H111F N52L/S54T/G56H & L6_IGKJ1*01 S28N/S30D/S31H S52L/A55G (Fab, V domains shown)
VH: B1 VH with N52L, S54T, G56H
VL: B1 VL with Q28N, S30D, S31H, S52L, A55G
notes: Fab expressed in E. coli: VH joined to CH1 from Plasmid A (His6 and Flag tags), VL joined to kappa CL from Plasmid C; also called H:APFF LTH & L:NDH LG
In the case of B3, the ELISA signal with Recombinant Human DLL4 [11] was 1.01; in the assay with Recombinant Human DLL4 [12] it was 0.368; with Recombinant Human DLL4 [13], 0.594; with Recombinant Human DLL4 [14] it was 0.88. The “ECL signal” value with Recombinant Human DLL4 [15] came to 9010.

B4: Fab VH1-46_IGHD6-6*01_IGHJ1*01 S102A/S103P/S104F/H111F & L6_IGKJ1*01 S28N/S30D/S31H S52W (Fab, V domains shown)
VH: B1 VH
VL: B1 VL with Q28N, S30D, S31H, S52W
notes: Fab with CH1 (plasmid A, His6 and Flag tags) and kappa CL (plasmid C); also called H:APFF & L:NDH S52W
In the case of B4, in assay [9], the “ECL signal” value was determined as 16300. In assay [10], the “ELISA (Avgerage signal-noise)” value turned out to be 0.177.

B5: Fab VH1-46_IGHD6-6*01_IGHJ1*01 S102A/S103P/S104F/H111F & L6_IGKJ1*01 S28N/S30D/S31H N53G (Fab, V domains shown)
VH: B1 VH
VL: B1 VL with Q28N, S30D, S31H, N53G
notes: Fab with CH1 (plasmid A, His6 and Flag tags) and kappa CL (plasmid C); also called H:APFF & L:NDH N53G
Turning to B5, the “ECL signal” value in assay [9] came out at 20600. For the same molecule, the “ELISA (Avgerage signal-noise)” value in assay [10] was 0.163.

B6: Fab VH1-46_IGHD6-6*01_IGHJ1*01 S102A/S103P/S104F/H111F & L6_IGKJ1*01 S28N/S30D/S31H S52M (Fab, V domains shown)
VH: B1 VH
VL: B1 VL with Q28N, S30D, S31H, S52M
notes: Fab with CH1 (plasmid A, His6 and Flag tags) and kappa CL (plasmid C); also called H:APFF & L:NDH S52M
For B6, the “ECL signal” value in assay [9] came out at 19500. Further, the “ELISA (Avgerage signal-noise)” value in assay [10] came to 0.185.

B7: Fab VH1-46_IGHD6-6*01_IGHJ1*01 S102A/S103P/S104F/H111F I51A/N52L/S54T/G56H & L6_IGKJ1*01 S28N/S30D/S31H S52L/A55S (Fab, V domains shown)
VH: B1 VH with I51A, N52L, S54T, G56H
VL: B1 VL with Q28N, S30D, S31H, S52L, A55S
notes: Fab expressed in E. coli: VH joined to CH1 from Plasmid A (His6 and Flag tags), VL joined to kappa CL from Plasmid C; also called H:APFF ALTH & L:NDH LS
As to B7, the ELISA signal in the assay with Recombinant Human DLL4 [11] stood at 0.458; with Recombinant Human DLL4 [12], 0.046; in the assay with Recombinant Human DLL4 [13], 0.04; in the assay with Recombinant Human DLL4 [14], 0.282. Besides, the “ECL signal” value with Recombinant Human DLL4 [15] was 3720.

B8: Fab VH1-46_IGHD6-6*01_IGHJ1*01 S102A/S103P/S104F/H111F (APFF) & L6_IGKJ1*01 S28T (Fab, V domains shown)
VH: B1 VH
VL: B1 VL with Q28T
notes: Fab made in E. coli; the variable domains were cloned into Plasmid A (CH1, His and Flag tags) and Plasmid C (kappa CL); also called APFF / S28T
As to B8, the ECL signal in assay [1] is 271; in [2], 321; in [3], 371; in assay [4], 249; in assay [5] it was 368; in assay [6], 355. In addition, the ECL signal in assay [7] came to 380; with Recombinant Human DLL4 [8], 159000.
